Earlier results as cited in patent publication US6632836B1, “Carbocyclic potassium channel inhibitors” (Merck & Co., Inc., priority 1998, dated 2003).

Target: T1, Kv1.3 channels (Homo sapiens, UniProt P22001)
T1 construct: expressed in transfected cells; host or cells: CHO cells
Conditions: reference blocker used at saturating concentration to establish the efflux window; read-out: IC50 as blocker of Kv1.3 channels

T1 sequence (P22001 whole entry): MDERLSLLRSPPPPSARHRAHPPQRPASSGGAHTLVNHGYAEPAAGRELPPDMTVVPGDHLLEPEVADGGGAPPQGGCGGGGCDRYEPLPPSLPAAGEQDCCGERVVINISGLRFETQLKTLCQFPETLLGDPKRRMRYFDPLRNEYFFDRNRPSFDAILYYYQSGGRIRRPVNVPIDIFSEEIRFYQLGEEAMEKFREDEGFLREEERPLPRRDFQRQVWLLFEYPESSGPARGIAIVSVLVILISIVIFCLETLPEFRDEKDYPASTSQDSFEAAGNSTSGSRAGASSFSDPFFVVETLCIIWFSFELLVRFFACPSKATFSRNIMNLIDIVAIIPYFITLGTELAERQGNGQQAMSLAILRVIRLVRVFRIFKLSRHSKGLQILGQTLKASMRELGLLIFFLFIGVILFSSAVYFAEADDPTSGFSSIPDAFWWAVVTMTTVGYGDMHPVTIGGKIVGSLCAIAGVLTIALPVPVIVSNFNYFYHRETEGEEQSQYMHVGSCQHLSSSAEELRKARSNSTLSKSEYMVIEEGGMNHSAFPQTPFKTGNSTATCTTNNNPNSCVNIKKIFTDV

In the case of “margatoxin (TIINVKCTSPKQCLPPCKAQFGQSAGAKCMNGKCKCYPH; UniProt P40755 1-39, looked up)”, the IC50 is listed as 0.1 nM.
